Test results: patent publication US20190382475
Residue numbers refer to the chain shown, from its start. Names and notes keep the numbering of the source.

How the values were obtained:
Assay in all cases: LC-UV-ESI-MS of purified Fab after co-expression of two heavy and two light chains in HEK293T (chain competition); competing chains not named
[1] = target: anti c-Kit Fab heavy chain Q39K/K147D/S165R
[2] = target: anti c-Kit Fab heavy chain Q39/K147/S165 (wild type)
[3] = target: anti c-Kit Fab heavy chain Q39/K147/S165D
[4] = target: anti c-Kit Fab heavy chain Q39D/K147/S165D
[5] = target: anti c-Kit Fab heavy chain Q39D/K147/S165
[6] = target: anti c-Kit Fab heavy chain Q39K/K147/S165
[7] = target: anti c-Kit Fab heavy chain Q39/K147/S165R
[8] = target: anti c-Kit Fab heavy chain Q39/K147D/S165
[9] = target: anti c-Kit Fab heavy chain Q39/K147D/S165R
[10] = target: anti c-Kit Fab heavy chain Q39K/K147/S165R
[11] = target: anti c-Kit Fab heavy chain Q39K/K147D/S165

B1: anti c-Kit Fab light chain Q38D/Q124K/K169D (protein)
chain: DIQMTQSPSSLSASVGDRVTITCRASQSISSYLNWYQDKPGKAPKLLIYYTSRLQSGVPSRFSGSGSGTDFTLTISSLQPEDFATYYCQQGRRLWSFGGGTKVEIKRTVAAPSVFIFPPSDEKLKSGTASVVCLLNNFYPREAKVQWKVDNALQSGNSQESVTEQDSDDSTYSLSSTLTLSKADYEKHKVYACEVTHQGLSSPVTKSFNRGEC
Correct pairing (%) [1]: 100%

B2: anti c-Kit Fab light chain Q38/Q124D/K169 (protein)
chain: B1 chain with D38Q, K123D, D168K
Correct pairing (%) [2]: 91%
Correct pairing (%) [3]: 88%

B3: anti c-Kit Fab light chain Q38K/Q124D/K169 (protein)
chain: B1 chain with D38K, K123D, D168K
Correct pairing (%) [4]: 100%
Correct pairing (%) [5]: 93%

B4: anti c-Kit Fab light chain Q38D/Q124/K169 (protein)
chain: B1 chain with K123Q, D168K
Correct pairing (%) [6]: 74%

B5: anti c-Kit Fab light chain Q38/Q124/K169D (protein)
chain: B1 chain with D38Q, K123Q
Correct pairing (%) [7]: 68%

B6: anti c-Kit Fab light chain Q38/Q124K/K169 (protein)
chain: B1 chain with D38Q, D168K
Correct pairing (%) [8]: 91%

B7: anti c-Kit Fab light chain Q38/Q124K/K169D (protein)
chain: B1 chain with D38Q
Correct pairing (%) [9]: 90%

B8: anti c-Kit Fab light chain Q38/Q124/K169 (wild type) (protein)
chain: B1 chain with D38Q, K123Q, D168K
Correct pairing (%) [2]: 63%
Correct pairing (%) [3]: 87%

B9: anti c-Kit Fab light chain Q38D/Q124/K169D (protein)
chain: B1 chain with K123Q
Correct pairing (%) [10]: 75%

B10: anti c-Kit Fab light chain Q38K/Q124/K169 (protein)
chain: B1 chain with D38K, K123Q, D168K
Correct pairing (%) [4]: 95%
Correct pairing (%) [5]: 95%

B11: anti c-Kit Fab light chain Q38D/Q124K/K169 (protein)
chain: B1 chain with D168K
Correct pairing (%) [11]: 95%
